Laboratory results from patent US20190134153A1, “IMMUNOMODULATORY EFFECT OF INHALED KINASE INHIBITOR PEPTIDES IN LUNG” (MOERAE MATRIX, INC., priority 2017, published 2019).

What was measured:
Assay in all cases: Kinase Profiling Assay
Type in all cases: biochemical
Conditions in all cases: 100 μM
ROCK-II(h) = ROCK-II(h) (Homo sapiens, UniProt O75116)
EphA8(h) = molecular target: T1, EphA8(h) (Homo sapiens, UniProt P29322)
T1 sequence (P29322 28-1005): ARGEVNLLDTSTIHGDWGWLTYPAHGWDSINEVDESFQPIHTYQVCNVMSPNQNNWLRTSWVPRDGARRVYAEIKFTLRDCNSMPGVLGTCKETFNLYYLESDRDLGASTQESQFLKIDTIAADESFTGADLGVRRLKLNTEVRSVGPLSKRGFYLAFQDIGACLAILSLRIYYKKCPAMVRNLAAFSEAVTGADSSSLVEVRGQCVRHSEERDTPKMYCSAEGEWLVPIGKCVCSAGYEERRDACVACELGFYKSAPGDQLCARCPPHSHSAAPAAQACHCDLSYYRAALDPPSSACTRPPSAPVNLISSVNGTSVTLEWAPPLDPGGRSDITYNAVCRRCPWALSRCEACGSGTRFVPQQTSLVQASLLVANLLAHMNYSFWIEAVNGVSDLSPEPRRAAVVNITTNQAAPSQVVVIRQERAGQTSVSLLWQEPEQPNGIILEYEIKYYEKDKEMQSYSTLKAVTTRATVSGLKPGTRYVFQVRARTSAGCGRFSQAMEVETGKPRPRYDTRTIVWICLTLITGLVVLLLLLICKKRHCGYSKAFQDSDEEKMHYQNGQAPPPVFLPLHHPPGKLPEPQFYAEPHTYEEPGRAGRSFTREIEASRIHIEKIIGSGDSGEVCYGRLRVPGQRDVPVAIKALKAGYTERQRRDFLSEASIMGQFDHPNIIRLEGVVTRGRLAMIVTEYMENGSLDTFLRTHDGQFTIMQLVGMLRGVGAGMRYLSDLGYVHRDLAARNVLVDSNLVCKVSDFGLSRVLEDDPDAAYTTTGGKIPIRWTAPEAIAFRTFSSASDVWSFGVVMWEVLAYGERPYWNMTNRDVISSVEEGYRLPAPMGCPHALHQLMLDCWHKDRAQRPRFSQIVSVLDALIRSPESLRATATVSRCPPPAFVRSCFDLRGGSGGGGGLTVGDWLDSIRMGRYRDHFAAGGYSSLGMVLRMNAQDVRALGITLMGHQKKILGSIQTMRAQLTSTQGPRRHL

PDGFRα(h) = PDGFRα(h) (Homo sapiens, UniProt P16234)
PDGFRα(h), sequence (P16234 24-1089): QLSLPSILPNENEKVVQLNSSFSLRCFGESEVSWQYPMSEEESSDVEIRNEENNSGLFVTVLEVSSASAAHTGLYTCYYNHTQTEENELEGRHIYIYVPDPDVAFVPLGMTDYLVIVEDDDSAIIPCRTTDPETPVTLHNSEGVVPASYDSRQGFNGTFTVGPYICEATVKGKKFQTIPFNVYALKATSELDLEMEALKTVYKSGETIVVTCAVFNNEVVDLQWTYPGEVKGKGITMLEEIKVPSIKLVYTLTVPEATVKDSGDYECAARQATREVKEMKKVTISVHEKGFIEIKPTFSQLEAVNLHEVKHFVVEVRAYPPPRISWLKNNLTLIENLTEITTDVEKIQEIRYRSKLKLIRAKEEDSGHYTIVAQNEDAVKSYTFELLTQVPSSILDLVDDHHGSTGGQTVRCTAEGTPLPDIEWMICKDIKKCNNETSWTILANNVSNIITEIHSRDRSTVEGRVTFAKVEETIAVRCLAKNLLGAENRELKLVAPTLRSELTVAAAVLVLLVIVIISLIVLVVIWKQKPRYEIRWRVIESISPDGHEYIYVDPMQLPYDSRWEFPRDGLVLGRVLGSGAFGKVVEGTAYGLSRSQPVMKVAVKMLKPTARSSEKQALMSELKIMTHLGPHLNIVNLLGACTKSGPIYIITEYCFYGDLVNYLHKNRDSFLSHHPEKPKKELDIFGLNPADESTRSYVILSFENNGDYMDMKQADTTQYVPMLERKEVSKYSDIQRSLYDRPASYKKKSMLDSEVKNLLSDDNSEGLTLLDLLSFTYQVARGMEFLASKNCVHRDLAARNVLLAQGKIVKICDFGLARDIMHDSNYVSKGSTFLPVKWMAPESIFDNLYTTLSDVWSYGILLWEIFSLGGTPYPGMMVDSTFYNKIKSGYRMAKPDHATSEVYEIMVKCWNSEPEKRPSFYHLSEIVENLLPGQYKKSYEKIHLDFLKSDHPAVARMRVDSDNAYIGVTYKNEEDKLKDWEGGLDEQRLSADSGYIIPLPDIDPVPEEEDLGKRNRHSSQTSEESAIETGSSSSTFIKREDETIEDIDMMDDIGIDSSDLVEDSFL

BTK(h) = BTK(h) (Homo sapiens, UniProt Q06187)
BTK(h), sequence (Q06187 whole entry): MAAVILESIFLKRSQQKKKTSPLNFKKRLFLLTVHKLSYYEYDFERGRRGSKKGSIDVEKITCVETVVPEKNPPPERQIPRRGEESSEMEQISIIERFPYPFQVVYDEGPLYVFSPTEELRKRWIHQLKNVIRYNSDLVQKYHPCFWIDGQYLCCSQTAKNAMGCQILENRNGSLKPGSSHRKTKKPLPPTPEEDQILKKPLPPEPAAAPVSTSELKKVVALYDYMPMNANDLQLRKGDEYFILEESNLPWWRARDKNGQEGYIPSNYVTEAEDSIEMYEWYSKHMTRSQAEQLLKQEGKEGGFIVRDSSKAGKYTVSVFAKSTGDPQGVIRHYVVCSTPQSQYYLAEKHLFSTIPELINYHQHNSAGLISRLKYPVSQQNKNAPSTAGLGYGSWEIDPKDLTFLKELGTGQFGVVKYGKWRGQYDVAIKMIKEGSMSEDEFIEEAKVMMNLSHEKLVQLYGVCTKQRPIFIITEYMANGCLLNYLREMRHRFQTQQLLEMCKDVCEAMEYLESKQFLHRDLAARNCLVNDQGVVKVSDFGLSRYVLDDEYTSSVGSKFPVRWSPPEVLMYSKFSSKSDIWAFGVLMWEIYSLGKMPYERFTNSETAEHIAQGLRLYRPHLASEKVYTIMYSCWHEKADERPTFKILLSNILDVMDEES

Mer(h) = molecular target: T2, Mer(h) (Homo sapiens, UniProt Q12866)
T2 sequence (Q12866 21-999): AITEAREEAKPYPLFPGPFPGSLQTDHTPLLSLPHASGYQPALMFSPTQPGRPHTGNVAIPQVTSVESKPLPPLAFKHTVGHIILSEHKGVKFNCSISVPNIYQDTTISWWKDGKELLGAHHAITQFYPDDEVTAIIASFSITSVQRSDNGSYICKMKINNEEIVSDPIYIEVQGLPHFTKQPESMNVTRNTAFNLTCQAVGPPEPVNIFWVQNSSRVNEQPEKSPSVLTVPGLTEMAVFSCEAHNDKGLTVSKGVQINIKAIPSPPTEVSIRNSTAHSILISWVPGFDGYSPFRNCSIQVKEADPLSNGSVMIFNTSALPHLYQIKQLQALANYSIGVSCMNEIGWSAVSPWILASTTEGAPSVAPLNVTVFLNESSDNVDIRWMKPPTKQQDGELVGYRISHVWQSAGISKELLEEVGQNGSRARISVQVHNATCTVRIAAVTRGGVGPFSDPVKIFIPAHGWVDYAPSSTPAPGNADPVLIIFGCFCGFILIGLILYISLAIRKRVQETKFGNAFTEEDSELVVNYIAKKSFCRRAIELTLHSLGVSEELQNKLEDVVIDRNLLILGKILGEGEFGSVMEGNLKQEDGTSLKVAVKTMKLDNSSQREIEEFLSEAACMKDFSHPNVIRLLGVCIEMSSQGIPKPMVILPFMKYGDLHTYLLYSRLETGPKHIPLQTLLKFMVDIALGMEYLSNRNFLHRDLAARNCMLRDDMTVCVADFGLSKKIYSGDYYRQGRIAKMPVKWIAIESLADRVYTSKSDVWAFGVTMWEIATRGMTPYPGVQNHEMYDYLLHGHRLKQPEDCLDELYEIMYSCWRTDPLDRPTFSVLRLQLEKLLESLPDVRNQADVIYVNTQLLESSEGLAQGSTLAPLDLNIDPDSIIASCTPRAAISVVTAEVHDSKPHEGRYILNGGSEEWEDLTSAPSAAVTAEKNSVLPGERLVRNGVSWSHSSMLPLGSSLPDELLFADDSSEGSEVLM

Pim-1(h) = Pim-1(h) (Homo sapiens, UniProt P11309)
Pim-1(h), sequence (P11309 whole entry): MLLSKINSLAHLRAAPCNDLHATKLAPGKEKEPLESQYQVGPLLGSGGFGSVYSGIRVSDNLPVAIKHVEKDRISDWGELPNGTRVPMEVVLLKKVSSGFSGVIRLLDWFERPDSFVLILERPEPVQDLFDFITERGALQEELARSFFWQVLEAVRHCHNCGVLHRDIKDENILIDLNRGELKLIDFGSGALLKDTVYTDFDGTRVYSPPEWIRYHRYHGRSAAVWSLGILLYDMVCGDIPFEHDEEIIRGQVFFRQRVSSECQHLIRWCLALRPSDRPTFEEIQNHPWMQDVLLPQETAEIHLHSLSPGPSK

Ret (V804L)(h) = Ret (V804L)(h) (Homo sapiens, UniProt P07949, V804L)

ROCK-II(h), sequence (O75116 whole entry): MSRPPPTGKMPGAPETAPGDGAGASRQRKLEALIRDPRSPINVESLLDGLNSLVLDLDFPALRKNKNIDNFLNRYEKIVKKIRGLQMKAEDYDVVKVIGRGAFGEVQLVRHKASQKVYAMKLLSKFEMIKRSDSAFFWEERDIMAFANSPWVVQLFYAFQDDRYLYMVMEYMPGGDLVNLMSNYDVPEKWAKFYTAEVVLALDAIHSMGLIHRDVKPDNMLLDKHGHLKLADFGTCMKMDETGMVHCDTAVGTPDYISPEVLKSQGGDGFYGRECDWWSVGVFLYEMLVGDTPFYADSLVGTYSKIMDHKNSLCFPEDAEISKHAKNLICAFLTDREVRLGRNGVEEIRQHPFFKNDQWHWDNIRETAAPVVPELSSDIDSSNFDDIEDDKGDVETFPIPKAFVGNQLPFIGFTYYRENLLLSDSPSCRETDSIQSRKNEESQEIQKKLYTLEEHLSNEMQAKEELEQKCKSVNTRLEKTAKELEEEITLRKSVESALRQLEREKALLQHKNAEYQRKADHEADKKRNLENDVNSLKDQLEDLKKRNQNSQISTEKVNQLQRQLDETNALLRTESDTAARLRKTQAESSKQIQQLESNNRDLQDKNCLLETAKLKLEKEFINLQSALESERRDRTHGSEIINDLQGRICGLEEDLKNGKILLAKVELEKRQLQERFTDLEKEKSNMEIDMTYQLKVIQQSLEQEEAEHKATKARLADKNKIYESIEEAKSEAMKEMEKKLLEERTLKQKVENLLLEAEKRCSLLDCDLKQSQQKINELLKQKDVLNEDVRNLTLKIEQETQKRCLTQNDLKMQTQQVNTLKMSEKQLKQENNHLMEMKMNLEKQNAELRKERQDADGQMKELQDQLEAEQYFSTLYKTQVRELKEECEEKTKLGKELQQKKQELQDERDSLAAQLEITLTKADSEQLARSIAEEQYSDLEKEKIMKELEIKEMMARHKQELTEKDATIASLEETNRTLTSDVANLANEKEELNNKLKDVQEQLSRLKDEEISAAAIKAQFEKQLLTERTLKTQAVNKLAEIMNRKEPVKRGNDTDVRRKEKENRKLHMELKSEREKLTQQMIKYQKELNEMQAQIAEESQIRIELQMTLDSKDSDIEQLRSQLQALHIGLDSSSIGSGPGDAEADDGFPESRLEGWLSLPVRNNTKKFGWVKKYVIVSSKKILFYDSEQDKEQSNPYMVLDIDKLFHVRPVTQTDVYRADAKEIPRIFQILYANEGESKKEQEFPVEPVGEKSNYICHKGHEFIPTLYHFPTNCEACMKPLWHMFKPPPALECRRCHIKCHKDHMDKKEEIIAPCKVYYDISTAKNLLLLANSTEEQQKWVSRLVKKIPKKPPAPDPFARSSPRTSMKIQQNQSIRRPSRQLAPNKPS

Row | Sequence | % activity (ROCK-II(h)) [%] | % activity (EphA8(h)) [%] | % activity (PDGFRα(h)) [%] | % activity (BTK(h)) [%] | % activity (Mer(h)) [%] | % activity (Pim-1(h)) [%] | % activity (Ret (V804L)(h)) [%]
1 | YARAAARQARAKALNRQLGVA [MMI-0200] | 85 | 133 | 108 | 100 | 90 | 18 | 100
2 | KAFAKLAARLYRKALARQLGVAA [MMI-0400] | 77 | 146 | 40 | 94 | 50 | 7 | 73
3 | HRRIKAWLKKIKALARQLGVAA [MMI-0500] | 2 | 337 | 40 | 18 | 17 | 0 | 20
4 | FAKLAARLYRKALARQLGVAA [MMI-0300] | 74 | 93 | 65 |  | 52 | 8 | 79
